Patent publication US20130203167A1 (SYRACUSE UNIVERSITY, published 2013)

Target: full-length WDR5 (UniProt P61964 2-334)
Experiment: method not stated; ITC with full-length WDR5 by the Methods

B1: Win motif peptide VNPTGCARSEPKMS (SEQ ID NO. 30) (peptide)
peptide: Ac-VNPTGCARSEPKMS-NH2
Kd: 47 nM

B2: Win motif peptide INPTGCARSEPKIL (SEQ ID NO. 29) (peptide)
peptide: Ac-INPTGCARSEPKIL-NH2
Kd: 78 nM

B3: Win motif peptide EHQTGSARSEGYYP (SEQ ID NO. 32) (peptide)
peptide: Ac-EHQTGSARSEGYYP-NH2
Kd: 415 nM

B4: Win motif peptide LNPHGAARAEVYLR (SEQ ID NO. 31) (peptide)
peptide: Ac-LNPHGAARAEVYLR-NH2
Kd: 52 nM

B5: Win motif peptide EHVTGCARSEGFYT (SEQ ID NO. 33) (peptide)
peptide: Ac-EHVTGCARSEGFYT-NH2
Kd: 116 nM
